Reference: article PMC8725580
Positions count from the first letter of the chain named.

What was measured:
Settings in all cases: 20 mM Tris pH 7.5, 1 mM CaCl2, 1 mM DTT, 10 ug/ml poly(dI-dC), 100 ug/ml BSA, 37 C, 10 min; probe 0.05 uM (0.1 uM restricted)
[1] = test system: T1, CovR D53E D52E (Streptococcus salivarius HSISS4), ORF:ee641105; test: competition
T1 sequence: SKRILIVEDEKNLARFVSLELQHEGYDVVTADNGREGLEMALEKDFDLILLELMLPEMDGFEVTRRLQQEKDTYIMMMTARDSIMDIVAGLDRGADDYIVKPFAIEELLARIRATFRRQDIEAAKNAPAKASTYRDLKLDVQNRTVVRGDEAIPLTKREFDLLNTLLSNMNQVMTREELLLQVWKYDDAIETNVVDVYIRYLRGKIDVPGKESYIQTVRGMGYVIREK

[2] = test system: T2, CovR WT (Strep-tagged) (Streptococcus salivarius HSISS4), ORF:ee641105; test: EMSA
T2 sequence: T1 sequence with E52D

[3] = test system: T1, CovR D53E D52E (Streptococcus salivarius HSISS4), ORF:ee641105; test: EMSA
[4] = test system: T3, CovR D53A D52A (Streptococcus salivarius HSISS4), ORF:ee641105; test: EMSA
T3 sequence: T1 sequence with E52A

How did the binding [1] turn out when “AAAAATAATGAGCACTTAAAAGAATGGGATAAGGACAATATCAAAAATGTTGTTCTATCTCATTCTTTTTGTTTGAAACAGTTAATATGGTAGAGGCGTTTTTACTAGTAGCGTATGCTATAATAGAAAGATAGAAAGGAGGCCTTCATG (double strand) [PdnaE unlabeled competitor]” was run?
The binding was “no binding”.

“CAAGAGACACTCCTTTATTTCGAAATTTTAAAAACATTATATCATAATTATAATATAATTAATATACAGTTAATGCATTTTTAACAGAACAATAGTGAAAATAAGCTATTTTTATACATTTTATATAGGAAAGACCTTCCTTTGTATCAA (double strand) [PcomR unlabeled competitor]” was tested. Which binding [1] did it give?
The binding was “binds”.

For “CCTGTAGTTCCCTTACATACAGTGCGTTACTTTGAGAATGCAGACCGCTCGACGATTCAGATGTTGCATGCCATCTCGCAAAACGTTTCCTTGTCAGAGGCCTCTATTTGTCCTATGAATCAGCTTCTTTTCTCGCCTCAAGAAATGGAA (double strand) [CDSdnaE unlabeled competitor]”, which binding [1] is on record?
Its binding is “no binding”.

How did the binding [2] turn out when “TTGATACAAAGGAAGGTCTTTCCTATATAAAATGTATAAAAATAGCTTATTTTCACTATTGTTCTGTTAAAAATGCATTAACTGTATATTAATTATATTATAATTATGATATAATGTTTTTAAAATTTCGAAATAAAGGAGTGTCTCTTG (double strand) [PcomR HSISS4 (150 bp)]” was run?
Its binding is “binds”.

And the binding [3]?
Its binding is “binds”.

And the binding [4]?
Its binding is “binds more weakly”.
